The record followed here is patent US12691168B2, “Vaccine for preventing and treating Merkel cell carcinoma” (priority 2020, dated 2026).

For one data set, the system named is CMS5 cells. Briefly: Killing effect of puromycin on CMS5 cells (trypan blue staining, microscope). It counts as cell-based. To be noted: puromycin 5 μg/mL, 24 h of culture. Here is the method:
In order to determine the killing dose of puromycin to CMS5, CMS5 cells were cultured in RPMI1640 (10% FBS, 1% […]) complete media with different concentrations of puromycin. 24 h later, cells were stained with trypan blue and observed under a microscope for mortality to determine the drug concentration for 100% lethality of CMS5 cells as the drug pressure for CMS5-VP1 cell line screening. […] After 24 h of culture, the CMS5 cells digested with trypsin were stained with trypan blue and the lethality of the cells was calculated microscopically to determine the final puromycin drug concentration. […]

Data set [1] is described as follows: Particle size by nano particle sizer. It counts as physicochemical. How it is done: 5) The VP1 was detected for pentamer formation by Nu-PAGE. The MCV-VP1 particle size was measured using a nano particle sizer.
3) Reassembled (also known as self-assembled) recombinant VP1 was named (rVP1), and rVP1 was filtered through a […] needle filter for sterilization, detected for the pentamer structure by Nu-PAGE, and measured for the particle size by a nano particle sizer.

For data set [2], the system named is anti-VP1 antibody in serum. The data set can be described thus: VP1-specific antibody titer in serum of immunized mice by ELISA. Particulars: Example 14; antigen adsorbed to Al(OH)3, i.m. days 0 and 14, blood day 28; plate coated with sVP1. It counts as in vivo, BALB/c mice. How it is done: Enzyme-linked immunosorbent assay: on day 21, blood samples were collected from the mice, and the serum was determined for specific antibody titer by ELISA. When the antibody concentration in the mouse serum needs to be semi-quantitatively determined, a standard curve is added on the basis of the conventional ELISA, and the concentration of the antibody in the mouse serum is determined according to the concentration of the standard curve.
Blood was taken from the fundus of BALB/c mice who have completed the immunization program on day 28 after the initial immunization and left to stand at 4° C. overnight. The blood was centrifuged at 6000 rpm for 10 min to obtain serum. The level of anti-VP1 antibody in serum was determined by ELISA. The specific procedures were as follows: […]
The optical absorbance values were read at OD450/OD620 nm, and a value of 2.1 times the OD value of the negative control group was taken as a cutoff value. […]
In order to obtain a large amount of VP1, VP1 expressed under high-temperature induction in a fermentation tank mainly formed inclusion bodies. […] The antigen-specific antibody titer was determined by enzyme-linked immunosorbent assay (ELISA), and the specific procedures were as follows: […]
Reading: optical absorbance values were read at OD450/OD620. […]
(In general: ELISA stands for enzyme-linked immunosorbent assay.)

Data set [3] concerns DTH (delayed type hypersensitivity). The data set can be described thus: Delayed type hypersensitivity (DTH), foot pad / paw swelling after antigen injection. The class given is in vivo, mice. Particulars: Example 13; two immunizations; 24 h after injection of rVP1; therapeutic vaccine groups compared with Vac group. How it is done: Delayed Type Hypersensitivity (DTH): the mice were immunized with the vaccine, and 7 days after the final immunization, 10 μL of antigen protein (10 μg) was injected into the hindfoot pad on the immunized side (right side) of the mice, and 10 μL of phosphate buffer was injected into the hindfoot pad on the side opposite to the immunized side (left side). The thickness of both hindfoot pads of the mice was measured 24 h and 48 h after DTH with a vernier caliper, and the measurement was performed three times at the same site to take the average. DTH value (mm)=right foot pad thickness−left foot pad thickness.
On day 7 after the immunization program, mice were injected with 10 μL of PBS or 10 μg of rVP1 (10 μL) at the left and right hind limb paws.
The paw swelling thickness was calculated for each experimental group according to the formula, and the differences between all vaccine groups were analyzed with GraphPad Prism statistical software.

Consider `COc1ccc(C[C@H](N)C(=O)N[C@H]2[C@@H](O)[C@H](n3cnc4c(N(C)C)ncnc43)O[C@@H]2CO)cc1` [puromycin], for which, in the data set on CMS5 cells, the “dead CMS5 cells, trypan blue staining” value is given as 100% and the “state of the cells observed under a microscope” value was “died in large numbers”.

B1: rVP1: recombinant VP1 from inclusion bodies, disassembled with DTT/EGTA and reassembled under GSSG-GSH condition (protein)
chain: MAPKRKASSTCKTPKRQCIPKPGCCPNVASVPKLLVKGGVEVLSVVTGEDSITQIELYLNPRMGVNSPDLPTTSNWYTYTYDLQPKGSSPDQPIKENLPAYSVARVSLPMLNEDITCDTLQMWEAISVKTEVVGISSLINVHYWDMKRVHDYGAGIPVSGVNYHMFAIGGEPLDLQGLVLDYQTEYPKTTNGGPITIETVLGRKMTPKNQGLDPQAKAKLDKDGNYPIEVWCPDPSKNENSRYYGSIQTGSQTPTVLQFSNTLTTVLLDENGVGPLCKGDGLFISCADIVGFLFKTSGKMALHGLPRYFNVTLRKRWVKNPYPVVNLINSLFSNLMPKVSGQPMEGKDNQVEEVRIYEGSEQLPGDPDIVRFLDKFGQEKTVYPKPSVAPAAVTFQSNQQDKGKAPLKGPQKASQKESQTQELHHHHHH
As to B1, the particle size in data set [1] amounted to 115.3 nm. Also, in data set [2], the “antigen-specific antibody titer relative to sVP1” value is reported as “twice those of sVP1”. Further, the “DTH reaction (paw swelling thickness)” value in data set [3] is “not significant”.

B2: sVP1: soluble VP1 expressed under low-temperature induction (protein)
chain: B1 chain
Consider B2, for which the particle size result in data set [1] is reported as “much higher than that of rVP1”.
